Consider ten molecules from PMC4373776, “A Unique HMG-Box Domain of Mouse Maelstrom Binds Structured RNA but Not Double Stranded DNA”.

Data set [1] has as its target T1, MAEL HMG-box (Mus musculus, UniProt Q8BVN9 2-86).
T1 sequence: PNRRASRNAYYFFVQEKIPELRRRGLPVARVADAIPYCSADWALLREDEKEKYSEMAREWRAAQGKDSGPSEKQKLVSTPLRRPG
In words: EMSA; complex from 0.5 uM protein; cooperative; fully bound; 10 mM potassium phosphate pH 7.5, 50 mM KCl, 5% glycerol, 1 mM TCEP, 0.1 mg/ml BSA, 2.5 mM MgCl2, ~1 nM substrate, room temperature 30-60 min; native PAGE in ice bath. Particulars: protein: recombinant; tags: GST removed by PreScission (pGex6P2); label: 5' 32P; folded.

Data set [2] addresses T1, MAEL HMG-box. In words: EMSA; 10 mM potassium phosphate pH 7.5, 50 mM KCl, 5% glycerol, 1 mM TCEP, 0.1 mg/ml BSA, 2.5 mM MgCl2, ~1 nM substrate, room temperature 30-60 min; native PAGE in ice bath. Particulars: protein: recombinant, tags: GST removed by PreScission (pGex6P2), label: 5' 32P.
Data set [3] concerns the target T2, MAEL HMG-box R31A (Mus musculus, UniProt Q8BVN9 2-86, R31A).
T2 sequence: T1 sequence with R30A
The description is as above. Particulars: protein: recombinant; tags: GST removed by PreScission (pGex6P2); label: 5' 32P; four-way junction of 4 strands.

In data set [4] the target is T3, MAEL HMG-box R25A (Mus musculus, UniProt Q8BVN9 2-86, R25A).
T3 sequence: T1 sequence with R24A
The description is as above. The conditions noted are these: protein: recombinant; tags: GST removed by PreScission (pGex6P2); label: 5' 32P; four-way junction of 4 strands.

Data set [5] has as its target T4, MAEL HMG-box R23A (Mus musculus, UniProt Q8BVN9 2-86, R23A).
T4 sequence: T1 sequence with R22A
Described as above. Particulars: protein: recombinant; tags: GST removed by PreScission (pGex6P2); label: 5' 32P; four-way junction of 4 strands.

Data set [6] deals with T5, MAEL HMG-box R8A (Mus musculus, UniProt Q8BVN9 2-86, R8A).
T5 sequence: T1 sequence with R7A
The data set is described as above. Particulars: protein: recombinant; tags: GST removed by PreScission (pGex6P2); label: 5' 32P; four-way junction of 4 strands.

The target of data set [7] is T6, SRY HMG-box (Mus musculus (129S4), UniProt Q05738 2-86). In words: EMSA; five complexes; 10 mM potassium phosphate pH 7.5, 50 mM KCl, 5% glycerol, 1 mM TCEP, 0.1 mg/ml BSA, 2.5 mM MgCl2, ~1 nM substrate, room temperature 30-60 min; native PAGE in ice bath. Particulars: protein: recombinant; tags: GST removed by PreScission (pGex6P2); label: 5' 32P; four-way junction of 4 strands.

Data set [8] addresses T7, MAEL HMG-box Q16A (Mus musculus, UniProt Q8BVN9 2-86, Q16A).
T7 sequence: T1 sequence with Q15A
In words: EMSA; same as wild type; 10 mM potassium phosphate pH 7.5, 50 mM KCl, 5% glycerol, 1 mM TCEP, 0.1 mg/ml BSA, 2.5 mM MgCl2, ~1 nM substrate, room temperature 30-60 min; native PAGE in ice bath. Particulars: protein: recombinant; tags: GST removed by PreScission (pGex6P2); label: 5' 32P; four-way junction of 4 strands.

Data set [9] addresses T8, HMGB1a (HMGB1 box A) (Mus musculus, UniProt P63158 2-86).
T8 sequence: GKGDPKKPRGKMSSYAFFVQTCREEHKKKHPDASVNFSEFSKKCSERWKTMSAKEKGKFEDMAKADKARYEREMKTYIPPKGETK
Description: EMSA; two complexes; 10 mM potassium phosphate pH 7.5, 50 mM KCl, 5% glycerol, 1 mM TCEP, 0.1 mg/ml BSA, 2.5 mM MgCl2, ~1 nM substrate, room temperature 30-60 min; native PAGE in ice bath. Particulars: protein: recombinant; tags: GST removed by PreScission (pGex6P2); label: 5' 32P; four-way junction of 4 strands.

In data set [10] the target is T1, MAEL HMG-box. In words: EMSA; 2.5 mM Mg2+; binding incomplete; 10 mM potassium phosphate pH 7.5, 50 mM KCl, 5% glycerol, 1 mM TCEP, 0.1 mg/ml BSA, 2.5 mM MgCl2, ~1 nM substrate, room temperature 30-60 min; native PAGE in ice bath. Particulars: protein: recombinant; tags: GST removed by PreScission (pGex6P2); label: 5' 32P; four-way junction of 4 strands.
The target in data set [11] is T8, HMGB1a (HMGB1 box A). In words: EMSA; multiple intermediate complexes; 10 mM potassium phosphate pH 7.5, 50 mM KCl, 5% glycerol, 1 mM TCEP, 0.1 mg/ml BSA, 2.5 mM MgCl2, ~1 nM substrate, room temperature 30-60 min; native PAGE in ice bath. The conditions noted are these: protein: recombinant; tags: GST removed by PreScission (pGex6P2); label: 5' 32P; four-way junction of 4 strands.

Data set [12] addresses T8, HMGB1a (HMGB1 box A). In words: EMSA; 10 mM potassium phosphate pH 7.5, 50 mM KCl, 5% glycerol, 1 mM TCEP, 0.1 mg/ml BSA, 2.5 mM MgCl2, ~1 nM substrate, room temperature 30-60 min; native PAGE in ice bath. Particulars: protein: recombinant; tags: GST removed by PreScission (pGex6P2); label: 5' 32P; blunt.
In data set [13] the target is T6, SRY HMG-box. In words: EMSA; 2.5 mM Mg2+; average of titration and cold competition; 10 mM potassium phosphate pH 7.5, 50 mM KCl, 5% glycerol, 1 mM TCEP, 0.1 mg/ml BSA, 2.5 mM MgCl2, ~1 nM substrate, room temperature 30-60 min; native PAGE in ice bath. Particulars: protein: recombinant; tags: GST removed by PreScission (pGex6P2); label: 5' 32P; blunt.
The target of data set [14] is T1, MAEL HMG-box. In words: EMSA; no appreciable binding; 10 mM potassium phosphate pH 7.5, 50 mM KCl, 5% glycerol, 1 mM TCEP, 0.1 mg/ml BSA, 2.5 mM MgCl2, ~1 nM substrate, room temperature 30-60 min; native PAGE in ice bath. Particulars: protein: recombinant; tags: GST removed by PreScission (pGex6P2); label: 5' 32P; folded.

Numbering of substitutions follows the chain as printed.

T6 sequence (Q05738 2-86): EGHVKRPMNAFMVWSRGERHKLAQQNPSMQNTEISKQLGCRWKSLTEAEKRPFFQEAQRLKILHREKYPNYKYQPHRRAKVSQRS

B1: L1_Md_F2 277-nt RNA (structured_RNA)
RNA: GGGUUCUGGCUAUUAUAAAUAAGGCUGCUAUGAACAUAGUGGAGCAUGUGUCCUUCUUACCGGUUGGGGCAUCUUCUGGAUAUAUGCCCAGGAGAGGUAUUGCUGGAUCCUCCGGUAGUACUAUGUCCAAUUUUCUGAGGAACCACCAGACUGAUUUCCAGAGUGGUUGUACAGCUUGCAAUCCCACCAGCAAUGAAGGCGUGUUCCUCUUUCUCCACAUCCACGCCAGCAUCUGCUGUCACCUGAAUUUUUGAUCUUAGCCAUUCUGACUGGUGUG
Regarding B1, the binding result in data set [1] is “binds”.

With GGGAAAGGGUUAGGGUUAGGGUUAGGGAA (ssRNA) [ssRNA], the binding result in [2] was “no binding”.

B2: DNA 4WJ (structured_DNA)
DNA 1: CCGACAGGACTGTCAACCAGGTAATATACCACTTGCGG
DNA 2: CCGCAAGTGGTATATTACCTGGTACGCGTTCACGG
DNA 3: CCGTGAACGCGTGGTGCGAATCGG
DNA 4: CCGATTCGCACCTGACAGTCCTGTCGG
Turning to B2, the binding result is listed as “no binding” in [3]; “no binding” in [4]; “no binding” in data set [5]; “no binding” in [6]; “binds” in data set [7]; “binds” in data set [8]. For the same molecule, in data set [9], the binding result was “binds”.

B3: RNA 4WJ (structured_RNA)
RNA 1: CCGACAGGACUGUCAACCAGGUAAUAUACCACUUGCGG
RNA 2: CCGCAAGUGGUAUAUUACCUGGUACGCGUUCACGG
RNA 3: CCGUGAACGCGUGGUGCGAAUCGG
RNA 4: CCGAUUCGCACCUGACAGUCCUGUCGG
modifications: 5'-terminal dC and 3'-terminal dG on each strand
Regarding B3, the binding result is “no binding” in data set [6] and “binds” in [11]. In data set [10], the dissociation constant (Kd) came to 638 nM.

B4: dsDNA-SRY 15 bp (dsDNA)
DNA 1: GCGCAACAATGCCGG
DNA 2: CCGGCATTGTTGCGC
In the case of B4, the binding result in data set [12] and in [2] (blunt) was “no binding” throughout. In addition, the dissociation constant (Kd) in data set [13] is about 12 nM.

GCGCAACAAUGCCGG (structured_RNA) [RNA hairpin 1]: the binding result in data set [2] (hairpin) was “no binding”.

B5: methylated dsDNA 16 bp (dsDNA)
DNA 1: CAGTCGACGTCGTGAC
DNA 2: GTCACGACGTCGACTG
modifications: 5-methyl-dC at position 8 of each strand
Regarding B5, the binding result in [2] (blunt) is given as “no binding”.

As for AAAGGGTTAGGGTTAGGGTTAGGGAA (ssDNA) [ssDNA (25-nt)], the binding result in [2] is on record as “no binding”.

GGGACCAGAAGGUCCCG (structured_RNA) [RNA hairpin 2]: the binding result in [2] (hairpin) is “no binding”.

B6: chr2 noPeak 177-nt RNA (structured_RNA)
RNA: GGGGGGGAUGAAAAAUUCAUCUAAUUUAGUACAAUGUAAAUAUAAAGAGUUUGGAAAUUUUUGAAAACUUGAGGUCAUGUUAAAAAAGCAACAACUCUCCUUUUAGAUUGUCCUAUUUGUGUCUUGAAAUUCCUAUGCUGUUCUAAACCCAUUUGGUAUGUAUGCUCCUGCCCAAAC
Turning to B6, in data set [14], the binding result was “no binding”.
